Molecular target: adeno-associated virus serotype 3B (AAV-3B) capsid protein subunit (adeno-associated virus serotype 3B)
Test: crystal structure

Substance: adeno-associated virus serotype 3B (AAV-3B) capsid protein subunit (natural protein)
- stoichiometry N: 60
